A short description of this data set: yeast display, Sf9 membrane polyspecificity reagent, FACS + sequencing; frameworks hold sequencing errors. The gist of the method: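 In a synthetic yeast display library (Saccharomyces cerevisiae BJ5465), nanobody expression was induced with galactose for 36–48 hours. FACS gates were set low and high (top ~1%) using anti-HA fluorescence for expression and streptavidin fluorescence for binding of the Sf9 membrane reagent. Each polyreactivity label is drawn from the gate of origin.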
“QVQLVESGGGLDQAGGSLRLSCAASGSIFSHYAMGWYRQAPGKERELVAAISRSGGSTYYADSVKGRFTISRDNAKNTVYLQMNSLKPDDTAVYYCSKEGDSGYWFDYWGQGTQVTVSS”: the “polyreactivity (PSR sort gate)” value is reported as “low polyreactivity”. Consider “QVQLVESGGGLDQAGGSLRLSCAASGSIFTDNAMGWYRQAPGKERELVASITIAGSTKYADSVKGRFTISRDNAKKTVYLQMNSLKPEDTAVYYCNAEASDLHDYWGQGTQVTVSS”, for which the “polyreactivity (PSR sort gate)” value is reported as “low polyreactivity”. With “QVQLVESGGGLDQAGGSLRLSCAASGSIFVNYARGWYRQAPGKERELVAAITRSGGRTYYADSVKGRFTISRDNAKNTVYLQMNSLKPEVTAVYYCAARRGYAGNRDGYWGQGTQVNVSS” the entry was “high polyreactivity”. With “QVQLVESGGGLDQAGGSLRLSCAASGSIFVYYAMGWYRHAPGKEMELVAAITSGTSTNYADSVKGRFTISRDNAQNTVYLQMNSLKPEDTAVYYCAADHYYTGTTYNYWGQGNQVTVSS” the entry was “low polyreactivity”; with “QVQLVESGGGLDQAGGSLRLSCAASGSIFYRNAIGWYRQAPGKDREFVAAITLRGGSTYYADSVKGRFTISRDNAKNTVYLQMNSLKPEDTAVYYCAADLLLYSSQDNDYWGQGTQVTVSS”, “low polyreactivity”; with “QVQLVESGGGLDQAGGSLRLSCAASGSIFYVNAMGWYRQAPGKERELVAAITSGGSTSYADSVKGRFTISRDNAKNTVYLQMNSLKPEDTAVYYCAADWDYPEQYRVNYEYGYWGLGTQVTVSS”, “low polyreactivity”.

As to “QVQLVESGGGLDQAGGSLRLSCAASGSIFYYYVMGWYRQAPGKERELVAAITNSDRTYYADSVKGRFTISRDNAKNTVYLQMNSLKLEDTAVYYCNADWFDQYYRDGLRGRYGYWRQGTQVTVSS”, the “polyreactivity (PSR sort gate)” value is reported as “low polyreactivity”.

Consider “QVQLVESGGGLDQAGGSLRLSCAASGSIIGIYAMGWYRQAPGKERELVAAISWSGGSTYYADSVKGRFTISRDNAKNTVYLQMNSLKPEDTAVYYCAARGHYQYYWGQGTQVTVSS”, for which the “polyreactivity (PSR sort gate)” value is recorded as “low polyreactivity”. For “QVQLVESGGGLDQAGGSLRLSCAASGSTFARNVMGWYRLAPGKERELVAAISWRGGRTYYADSVKGRFTISRDNAKNTVYLQMNSLKPEDTAVYYCAAGRSFRGSYWYEYWGQGTQVTVSS”, the “polyreactivity (PSR sort gate)” value was “high polyreactivity”. For “QVQLVESGGGLDQAGGSLRLSCAASGSTFESNAMGWYRQAPGKERELVAAISWRVGSTYYADSVKGRFTISRDNAKNTDYLQMHSLKPEDTAVYYCASKGWYSHYGGYDYWGQGTQVTVSS” the value was “low polyreactivity”; for “QVQLVESGGGLDQAGGSLRLSCAASGSTFGWYAMGWYIQAPGTERELVAAINSSGGTTYYADSVKGLFTISRDNAMNTVYLQMNSLKPEDTAVHYCAARQVYSVGKDTRSVGYWGQGTQVTGSS”, “low polyreactivity”.

As for “QVQLVESGGGLDQAGGSLRLSCAASGSTFGYYAMAWYRQSPGKERELVAAITSGASTNYADSVKGRFTISRDNAKNTVYLQMNSLKPEDTAVYYCAAGFQTRTPLNEFDYWGQGTQVTLSS”, the “polyreactivity (PSR sort gate)” value is “low polyreactivity”. For “QVQLVESGGGLDQAGGSLRLSCAASGSTFRYSVMGWSRQAPGKERELVAGISYRGGTTYYADSVKGRFTISRDNAKNTVYLQMNSLKPEDTAVYYCAADSTPYVLSGNYDYWGQGTQVTVSS” the value was “low polyreactivity”; for “QVQLVESGGGLDQAGGSLRLSCAASGSTFYAYAMGWYRQAPGKERELVAANSSDGTNYADSVKGRFTLSRDNAKNTVYLQMNSLKPEDTAVYYCAKDSVWGAKNLTSYKYYYWGQGTQVTVSS”, “low polyreactivity”. Regarding “QVQLVESGGGLDQAGGSLRLSCAASGYIFYRNAMGCYRQAPGKERELVAAITYTGGRTYYADSVKGRFTISRDNAKNTVYLQMNSLKPEDTAVYYCNADGRVFVVRPYYDYEYWGQGTQVTVSS”, the “polyreactivity (PSR sort gate)” value was “low polyreactivity”. With “QVQLVESGGGLDQAGGSLRLSCAASVSNFEYYVMGWYRQAPGTERELVAVIRRSSGSTYYADSVKGRFTISRDNAKNTVYLQMNSLKPEDTAVYYCAARRYEPIIWHRMDYCGQGTQVTVSS” the entry was “low polyreactivity”. For “QVQLVESGGGLDQAGGSLRLSCAAYGNTFRGYTMGWYRQAPGKEREFVAAISWSGGRTNYADSVKGRFTISRDNAKNTVYLQMNSLKPEDTAVYYCARDYRARRWGMDYWGQGTQVTVSS” the value was “high polyreactivity”; for “QVQLVESGGGLDQAGGSLRLSCAAYGSIFYGYAMGWYRTAPGKERELVAAITSGGSTYYADSVKGRFTISRDNAKNTVYLQMNSLKPEDTAVYYCAATFCTWYSWYDYWGQGTQVTVSS”, “high polyreactivity”; for “QVQLVESGGGLDQAGGSLRLSCADSGYILDRNAMGWYRHAPGKETALVAVISWGGTRTYYADSVKGRFTISRDNAKNTVYLQMISLKPEDTAVYYCARYPYYYGYAGRYDYWGQGTQVTVSS”, “high polyreactivity”. Take “QVQLVESGGGLDQAGGSLRLSCAPSGRIFYTNAMGWYRQAPGKERELVAAISSGGGRTYYADSVKGRFTISRDNAKNTVYLQMNSLKPEDTAVYYCAASNVGYRSYSRGFDYWGQGTQVTVSS”: the “polyreactivity (PSR sort gate)” value was “high polyreactivity”. With “QVQLVESGGGLDQAGGSLRLSCASSGIIFWWNTMGGYRQAPGQESEMVAAISTGGSTNYADSVKGRFTISRDNAKNTVYLQMNSLKPEDTAVYYCNADWTDGDWADMDYWGQGTQVTVSS”, the “polyreactivity (PSR sort gate)” value is on record as “low polyreactivity”.

Consider “QVQLVESGGGLDQAGGSLRLSSAASGFTISWYDMGWYRQAPGKERELVAAITYTGGSTYYADSVKGRFTISRDNAKNTVYFQMNSLKPEDTAVYYCNADEPSSNMDYWGQGTQVTVSS”, for which the “polyreactivity (PSR sort gate)” value was “low polyreactivity”. Regarding “QVQLVESGGGLDQAGGSLRLSSAASGSIFSGYAMGWYRQAPGKERELVAAISSSGTRTYYADSVKGRFTISRDNAKNTVYLQMNSLKPEETAVYYCNAATSKVQFSGYGYWGQGTQVTVSS”, the “polyreactivity (PSR sort gate)” value is given as “high polyreactivity”. For “QVQLVESGGGLDQAGGSLRLSSAASGSIFVDNAMGWYRQAPGKERELVAAISRRGGSTYYADSVKGRFTISRDNAKNTVYLQMNSLKPEDTAVYYCNKKNIQFYQGASDYWGQGTQVTVSS” the value was “high polyreactivity”; for “QVQLVESGGGLDQAGGSLRLTCAASGIIFFEYAMGWYRQAPGKERELVAAISWRGGRTYYADSVKGRFTISRDNAKNSVYLQMNSLKPEDTAVYYCAADFRSWPYYPWSKYDYWGQGTQVTVSS”, “high polyreactivity”. As to “QVQLVESGGGLDQAGGSLRLTCAASGRIFGAYAMGWYRQAPGKEMELVAVISLSTGSTYYADSVKVRFTISRDNAKNTVYLQMKSLKPDDTAVYYCAVDTRFKWGWDYYYWGLGTQVTVSS”, the “polyreactivity (PSR sort gate)” value is given as “high polyreactivity”. With “QVQLVESGGGLDQAGGSLSLSTAASGFTFYVKAMGLYRQAPGKEREWVAAISSSGTRTYYADSVKGRFTISRDNAKNSVYFQMKCLKPEYTAVYFCAARGQAYSGDRMYYWGQGTQVTVSS” the entry was “high polyreactivity”; with “QVQLVESGGGLDQAGGSRRLSGAASGSTFHGYDKGWYIQAPGKERELVAAITSSGDDTYYADSVKGRFTISRDNAKNTVYLKRNSLKPEDTAVYYCDAEYTEGYTHDYWGQGTKVTVSS”, “low polyreactivity”. With “QVQLVESGGGLDQAGRSLRLSFAASGRTFDLYPMGWYRQAPGKERELVAAITNGETYADSVKGRFTISLDDAKNTVYLQMNSLKPEDTAVYYCAKYDPWFWRAEDYWGQGTQVTVSS” the entry was “low polyreactivity”; with “QVQLVESGGGLDQARGSLRLSCAASGFIFGRYAMGWYRQAPGKVRELVAAISRSGGSTHYADSVKGRFTISRDNAKNTVYLQMNSLKPEDTAVYYCNTYLTIWGYFYGYDYWGQGTQVTVSS”, “high polyreactivity”. For “QVQLVESGGGLDQARGSLRLSCAASGRIFWRYAMGWYRQAPGKERELVASISSGGSTNYADSVKGRFTISRDNAKNTVYLQMNSLKPEDTAVYYCNAQAWHLGVITGRWNRYEYWGQGTQVTVSS” the value was “high polyreactivity”.

In the case of “QVQLVESGGGLDQARGSLRLSCAASGSILRYYTMGWYRQAHGKERELVAAISYRGSSTYYADSVKGRFTISRDNAKNTVYLQMNSLKPEDTAVYYCARGGYYGYDYWGQGTQVTLSS”, the “polyreactivity (PSR sort gate)” value is “high polyreactivity”. For “QVQLVESGGGLDQARGSLRLSCAASGSTFKRKPLGWYRQATGKERELVAAITQSGGSTYYADSVKGRFTISRDNAKNTVYLLMYSLKPEDTSVYYCAASYLRGRRYEYWGQGTQVTVSS”, the “polyreactivity (PSR sort gate)” value is recorded as “high polyreactivity”.

Regarding “QVQLVESGGGLEQAGGSLRLSCAASGITLRVNAMGWYRQAPGKERELVAAITRGTNTYYADSVKGRFTISRDNAKNTVYLQMNSLKPEDTAVYYCAARLPYNAIGYYYWGQGTQVTVSS”, the “polyreactivity (PSR sort gate)” value is reported as “low polyreactivity”. For the sequence “QVQLVESGGGLEQAGGSLRLSCAASGLTFSVYAMGWYRQAPGKERELVAGITSSGGDTYYADSVKGRLTISRDNAKNTVYLQMNSLKPEDTAVYYCNAKYRTFVSKHDYWGQGTQVTVSS”, the “polyreactivity (PSR sort gate)” value is “low polyreactivity”. For “QVQLVESGGGLFHAGGSLRLSCAASGIIFGGYTIGWYRQAPGKERELVAAISWSGVGTYYADSVKGRFTISRDNAKNTVYLQMNSLKPDDTAVYYCAAWAYYSDDDEYWGQGTQVTVSS” the value was “high polyreactivity”; for “QVQLVESGGGLFHAGGSLRLSCSASGLTFDINAMGWYRQEPGKERELVAAISRSGGRTYYADSVKGRFTISRDNAKNTVFLQMNSLKPEDTAVYYCADRFIYGYDYWGQGTQVTVSS”, “high polyreactivity”; for “QVQLVESGGGLFQAGGRLRLSCAASGRIFWLYAMGWYRQAPGKERELVAAITGIGGSTYYADSVKGRFTISRDNAKNTVYLQMNSLKPEDTAVYYCAARSPATYPSMGYWGQGTQGTVSS”, “low polyreactivity”. For “QVQLVESGGGLFQAGGRLRLSCAATGSIFSVYTMGWYRQAPGKERELVATISFSVGRTYYADSVKGRFTISRDNEKNSVYLQMNSLKPEDTAVYYCNARSCGGYYHWGQGTQVTVSS” the value was “high polyreactivity”; for “QVQLVESGGGLFQAGGSHRLSCAATGINFSEYAMGWYRQAPGKERELVAAISKSSGSTRYADSVKGRFTISRDNAKNTVFLQMNSLNPEDTAVYYCAARQYGPRYTYYYWGQGTQVTVSS”, “high polyreactivity”; for “QVQLVESGGGLFQAGGSLRLSCAASGFIFPINAMGWYRQAPGKERELVAAITSGGRTNYADSVKGRFTISRDNAKNTVYLQMNSLKPEDTAVYYCNAVVFVLNVEYYPWLLNNYWGQGTQVTVSS”, “low polyreactivity”.

The values are drawn from the nanobody polyreactivity screen of Harvey et al. (2022).
